Reference: publication PMC8385704 (Signal Transduction and Targeted Therapy, 2021)

Legend:
[1] = molecular target: T1, His-tagged recombinant human ACE2 protein (residues 19-740), dimeric (Homo sapiens, UniProt Q9BYF1); assay: BLI; details: both partners purified
T1 construct: also called hACE2-his; His-tagged human ACE2

[2] = molecular target: T1, His-tagged recombinant human ACE2 …; assay: ELISA; 3E8 and His-tagged recombinant human ACE2 protein; who was coated is not told; details: both partners purified

T1 sequence (Q9BYF1 19-740): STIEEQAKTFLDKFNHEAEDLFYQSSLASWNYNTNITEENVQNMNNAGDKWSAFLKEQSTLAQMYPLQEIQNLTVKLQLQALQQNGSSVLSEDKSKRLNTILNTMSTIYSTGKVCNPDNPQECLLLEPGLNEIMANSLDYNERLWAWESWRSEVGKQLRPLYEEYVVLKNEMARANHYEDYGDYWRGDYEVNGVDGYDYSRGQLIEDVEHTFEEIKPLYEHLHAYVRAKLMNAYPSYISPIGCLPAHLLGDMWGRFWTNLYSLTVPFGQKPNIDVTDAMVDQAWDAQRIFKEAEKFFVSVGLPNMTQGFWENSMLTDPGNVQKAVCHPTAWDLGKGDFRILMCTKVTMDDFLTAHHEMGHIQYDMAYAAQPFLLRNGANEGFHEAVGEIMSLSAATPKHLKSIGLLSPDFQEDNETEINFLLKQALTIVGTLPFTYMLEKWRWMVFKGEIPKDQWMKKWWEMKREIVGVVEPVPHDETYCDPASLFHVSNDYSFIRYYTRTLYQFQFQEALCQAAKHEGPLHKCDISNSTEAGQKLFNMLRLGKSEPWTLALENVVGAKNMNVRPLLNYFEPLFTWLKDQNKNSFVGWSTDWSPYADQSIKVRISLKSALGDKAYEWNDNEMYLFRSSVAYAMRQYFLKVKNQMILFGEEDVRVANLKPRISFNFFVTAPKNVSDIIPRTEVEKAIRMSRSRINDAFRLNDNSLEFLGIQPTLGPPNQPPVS

B1: monoclonal antibody 3E8 (antibody, V domains shown)
VH: EVQLEESGAELVRPGASVKISCKAFGYTFTNHHINWMKQRPGQGLDWIGYVNPYNDYTKYSQNFKGKATLSVDRSSSTAYMELSSLTSEDSAVYYCARWRDYDRDWYFDVWGAGTTVIVSS
VL: DIVMTQSPATLSVTPGDRVSLSCRASQSIRDYLYWYQQKSHESPRLLIKYASQSISGIPSRFSGSGSGSDFTLSINSVEPEDVGVYYCQNGHSFPYTFGGGTKLEIK
Question: What does the source list for B1?
Answer: Kd [1]: 30.5 nM; EC50 [2]: 15.3 nM
